Entries after “also recorded” stand apart in the source; their conditions may differ.
B1: Smac: wild type (WT) Smac polypeptide from Homo sapiens, SEQ ID NO 1, 239 amino acids; second mitochondria-derived activator of caspase (protein, listed as Homo sapiens)
chain: MAALKSWLSRSVTSFFRYRQCLCVPVVANFKKRCFSELIRPWHKTVTIGFGVTLCAVPIAQKSEPHSLSSEALMRRAVSLVTDSTSTFLSQTTYALIEAITEYTKAVYTLTSLYRQYTSLLGKMNSEEEDEVWQVIIGARAEMTSKHQEYLKLETTWMTAVGLSEMAAEAAYQTGADQASITARNHIQLVKLQVEEVHQLSRKAETKLAEAQIEELRQKTQEEGEERAESEQEAYLRED
B2: Smac ΔA: Smac mutant lacking the initial Ala (Ala deletion mutant polypeptide), used as negative control (protein, UniProt Q9NR28 22-239, looked up, variant A1*)
Diablo IAP-binding …: LCVPVVANFKKRCFSELIRPWHKTVTIGFGVTLCVPIAQKSEPHSLSSEALMRRAVSLVTDSTSTFLSQTTYALIEAITEYTKAVYTLTSLYRQYTSLLGKMNSEEEDEVWQVIIGARAEMTSKHQEYLKLETTWMTAVGLSEMAAEAAYQTGADQASITARNHIQLVKLQVEEVHQLSRKAETKLAEAQIEELRQKTQEEGEERAESEQEAYLRED

Legend:
c-IAP2 = molecular target: T1, c-IAP2 (Homo sapiens, UniProt Q13489); assay: Co-transfection of HeLa cells with c-IAP2 and Smac plasmids, Western blot; assay type: cell-based; conditions: for ubiquitylation and degradation (E3 activity) of c-IAP2: co-transfection, FIG. 2B
T1 construct: produced not only the expected full length c-IAP1 or c-IAP2; expressed in transfected cells; host or cells: HeLa
T1 sequence (Q13489 whole entry): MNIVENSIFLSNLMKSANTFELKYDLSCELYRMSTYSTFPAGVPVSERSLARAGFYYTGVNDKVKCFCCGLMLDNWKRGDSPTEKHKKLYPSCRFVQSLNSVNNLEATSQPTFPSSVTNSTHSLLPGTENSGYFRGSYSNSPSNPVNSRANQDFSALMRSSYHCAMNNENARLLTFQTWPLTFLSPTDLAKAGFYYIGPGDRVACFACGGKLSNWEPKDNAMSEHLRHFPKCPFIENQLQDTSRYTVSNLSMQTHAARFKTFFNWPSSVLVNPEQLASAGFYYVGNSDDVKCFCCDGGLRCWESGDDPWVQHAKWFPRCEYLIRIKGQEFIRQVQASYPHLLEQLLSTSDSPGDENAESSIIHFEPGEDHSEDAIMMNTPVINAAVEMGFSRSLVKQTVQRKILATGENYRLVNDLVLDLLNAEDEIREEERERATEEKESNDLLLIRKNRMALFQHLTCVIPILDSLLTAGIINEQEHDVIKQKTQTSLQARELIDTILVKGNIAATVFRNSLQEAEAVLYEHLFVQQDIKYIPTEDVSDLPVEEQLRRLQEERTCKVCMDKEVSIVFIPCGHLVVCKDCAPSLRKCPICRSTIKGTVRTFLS
Procedure: (§1) Transfection of cultured Cells—HeLa cells were grown in DMEM supplemented with 10% fetal bovine serum. Cells were seeded onto 6-well plates the day before transfection and transfected at 70% confluence by using Lipofectin combined with Plus reagent (Invitrogen) according to the manufacture's protocols. The IAP expression plasmids (3 μg each for c-IAP1, c-IAP2 and XIAP, and 250 ng each for Livin αand Livin β) together with 2.5 μg of Smac expression plasmids or pcDNA3.1(−) blank plasmid were used for single-well transfection in the absence of antibiotics. The cells were harvested 12 hours after the transfection and lysed with 0.5% CHAPS in 20 mM HEPES (pH 7.4), 10 mM KCl, 1 mM MgCl2 and 1 mM DTT. The lysates were centrifuged and the protein concentrations of the supernatants were quantified by the modified Bradford method (36).
(§2) Western Blot analysis—Proteins were resolved by SDS-PAGE and transferred to nitrocellulose filters. The filters were blocked with 5% milk and probed with antibodies as indicated. The signals were visualized with the enhanced chemiluminescence method.
(§3) To investigate the effect of Smac polypeptide on IAP protein levels, HeLa cells were transfected with the expression vectors for Smac and various IAPs. Briefly, HeLa cells were either transfected with IAP alone (Lane 2, 4 and 6), or together with Smac polypeptide (Lane 3, 5 and 7), or with Smac polypeptide alone (Lane 1). Equal amounts of cell lysates (7 μg) were immunoblotted with either the HRP-conjugated anti-FLAG antibody (shown in the top panel) in order to detect N-terminal 3×FLAG tagged IAPs, or with the anti-c-Myc antibody (bottom panel) to detect C-terminal c-Myc tagged Smac. The ubiquitin fusion technique was used to secure the production of mature Smac protein with the expected N-terminal AVPI motif (6, 37).
(§4) Because it is known that the His^588 residue in the RING finger domain is important for the IAP E3 activity (22), this residue was mutated to test whether Smac stimulated the ubiquitylation-mediated degradation of both c-IAP1 and c-IAP2. In each case, His^588 in c-IAP1 and His^574 in c-IAP2 was mutated to Ala (H588A mutant and H574A mutant, respectively) and the results are depicted in FIGS. 2A and 2B. The c-IAP1 WT or H588A mutant plasmids together with either Smac WT or Smac ΔA mutant, or with pcDNA3.1 (−) blank plasmid were co-transfected into HeLa cells (FIG. 2A). The c-IAP2 WT or H574A mutant plasmids together with either Smac WT or Smac ΔA mutant, or with pcDNA3.1 (−) blank plasmid were co-transfected into HeLa cells (FIG. 2B). As controls, HeLa cells were also transfected with either Smac WT or ΔA plasmids together with the blank p3×FLAG-CMV-7 plasmid. The transfected cells were cultivated either in the absence (see lanes 1-7 of FIGS. 2A and 2B) or in the presence (see lanes 8-14 of FIGS. 2A and 2B) of MG132. Equal amounts of soluble proteins (7 μg) from the transfected cells were immunoblotted with either the HRP-conjugated anti-FLAG antibody (see top panel of FIGS. 2A and 2B) to detect N-terminal 3×FLAG tagged IAPs, or with the anti-c-Myc antibody (see middle panel of FIGS. 2A and 2B) to detect C-terminal c-Myc tagged Smac. The anti-Actin immunoblotting results were to show equal protein loading (see bottom panel of FIGS. 2A and 2B).

[1] = tested on: IAP proteins (GST fusion form); assay: GST pull-down of purified IAP proteins with Smac, silver staining; assay type: binding, human; conditions: equimolar concentrations, 2 hours at 4° C., FIG. 4
Procedure: The ability of various IAP proteins to bind Smac WT polypeptide and Smac ΔA mutant polypeptide was also examined. The results are depicted in FIG. 4. Briefly, purified IAP proteins (GST fusion form; as indicated in FIG. 4) were incubated with equimolar concentrations of either Smac or Smac ΔA in a buffer containing 20 mM phosphate (pH 7.4), 200 mM NaCl and 0.05% Tween 20 for 2 hours at 4° C. The GST-fused IAP proteins were pulled down by Glutathione Sepharose beads. The resulting […] were subjected to SDS-PAGE followed by silver staining. Lane M of FIG. 4 is the protein marker. […] The reason for this IBM-independent acceleration on XIAP and Livin ubiquitylation is unknown.

c-IAP1 = assay: Co-transfection of HeLa cells with c-IAP1 and Smac plasmids, Western blot; assay type: cell-based, human; conditions: for auto-ubiquitylation (E3 activity) of c-IAP1: co-transfection, FIG. 2A
Procedure: as §1, §2, §3, §4

XIAP = XIAP (Homo sapiens, UniProt P98170); assay: Co-transfection of HeLa cells with XIAP and Smac plasmids, Western blot; assay type: cell-based; set-up: expressed in transfected cells; host or cells: HeLa; conditions: for XIAP ubiquitylation: co-transfection
XIAP, sequence (P98170 whole entry): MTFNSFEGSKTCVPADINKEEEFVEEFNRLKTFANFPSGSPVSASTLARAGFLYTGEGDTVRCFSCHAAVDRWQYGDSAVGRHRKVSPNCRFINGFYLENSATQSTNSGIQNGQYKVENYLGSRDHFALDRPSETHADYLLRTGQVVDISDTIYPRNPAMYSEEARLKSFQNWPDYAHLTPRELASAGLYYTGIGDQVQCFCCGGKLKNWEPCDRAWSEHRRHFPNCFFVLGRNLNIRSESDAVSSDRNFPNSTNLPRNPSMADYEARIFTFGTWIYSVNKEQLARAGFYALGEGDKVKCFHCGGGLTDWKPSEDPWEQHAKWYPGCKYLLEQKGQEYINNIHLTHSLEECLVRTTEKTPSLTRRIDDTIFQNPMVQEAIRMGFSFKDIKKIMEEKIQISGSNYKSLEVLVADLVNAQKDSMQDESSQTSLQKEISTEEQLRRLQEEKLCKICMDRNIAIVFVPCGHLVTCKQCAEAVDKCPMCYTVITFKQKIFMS
Procedure: as §1, §2, §3
It is known that XIAP is ubiquitylated by its own E3 activity when expressed in HEK 293T cells and that this auto-ubiquitylation and subsequent degradation is stimulated by Reaper (26). In the current study, XIAP transiently expressed in HeLa cells was ubiquitylated as well; however, mono-ubiquitylation rather than poly-ubiquitylation of XIAP was the major product (see FIG. 3A). Briefly, XIAP WT or H467A mutant plasmids together with either Smac WT or ΔA, or with pcDNA3.1(−) blank plasmid, were co-transfected into the HeLa cells. As controls, HeLa cells were also transfected with either Smac WT or ΔA plasmids together with the blank p3×FLAG-CMV-7 plasmid. The transfected cells were cultivated either in the absence (see lanes 1-7 of FIG. 3A) or in the presence (see lanes 8-14 of FIG. 3A) of MG132. Equal amounts of soluble proteins (7 μg) from the transfected cells were immunoblotted with either the HRP-conjugated anti-FLAG antibody (see top panel of FIG. 3A) to detect N-terminal 3×FLAG tagged IAPs, or with the anti-c-Myc antibody (see middle panel of FIG. 3A) to detect Smac. The anti-Actin immunoblotting results were to show equal protein loading (see bottom panel of FIG. 3A).

[2] = mature Smac co-expressed, FIG. 1
[3] = listed as Smac mutant lacking the initial Ala residue

Molecule | level of c-IAP2 (c-IAP2; co-expression, absence of MG132, FIG. 2B) | ubiquitylation and degradation (E3 activity) of c-IAP2 (c-IAP2) | protein level of c-IAP2 (c-IAP2; [2]) | binding to IAP proteins [1] | level of wild type c-IAP1 (c-IAP1; co-expression, absence of MG132, FIG. 2A) | levels of non-/mono-/di-ubiquitylated and highly ubiquitylated c-IAP1 forms (c-IAP1; co-expression, presence of MG132, FIG. 2A) | level of E3-negative H588A c-IAP1 (c-IAP1; either in the absence or in the presence of MG132) | protein level of c-IAP1 (c-IAP1; [2]) | level of XIAP (XIAP; co-expression, absence of MG132) | overall amount of XIAP (XIAP; co-transfected Smac, FIG. 3A) | XIAP ubiquitylation (XIAP; FIG. 3A) | protein level of XIAP (XIAP; [2]) | binding to IAP proteins [1, 3] | auto-ubiquitylation (E3 activity) of c-IAP1 (c-IAP1) | auto-ubiquitylation (E3 activity) of c-IAP1 (c-IAP1; [3])
B1 | nearly non-detectable level | strongly promoted the ubiquitylation and degradation of c-IAP2 | significantly decreased | bind | nearly complete disappearance of c-IAP1; also recorded: nearly non-detectable level | reduction in the level of non-ubiquitylated and mono-/di-ubiquitylated wild type c-IAP1 and a concomitant increase in the level of highly ubiquitylated c-IAP1 forms | did not cause a drastic change | significantly decreased | negligible effect | not significantly affected | still promoted XIAP ubiquitylation | unaffected |  |  | 
B2 |  | did not promote the E3 activity |  | failure to bind |  |  |  |  |  |  | stimulated the auto-ubiquitylation of XIAP and Livin |  | did not bind IAP proteins | did not enhance the auto-ubiquitylation of c-IAP1 | did not promote the E3 activity

Reference: US20060019335A1, “Compositions and methods to promote c-IAP autodegradation” (priority 2004, published 2006)
